Assays:
Experiment in all cases: immunoaffinity peptide capture on mAb-Protein G magnetic beads, read by SRM-MS (immuno-SRM); ELISA screening
[1] = biological target: T1, CYBB 509-521 signature peptide (TLYGRPNWDNEFK)
T1 construct: Endogenous tryptic peptide of CYBB from digested dried blood spots of patients and normal controls
T1 peptide: TLYGRPNWDNEFK

[2] = biological target: T2, DOCK8 1272-1283 signature peptide (TSGIVLSSLPYK)
T2 construct: Endogenous tryptic peptide of DOCK8 from digested dried blood spots of patients and normal controls
T2 peptide: TSGIVLSSLPYK

[3] = biological target: T3, ADA 93-101 signature peptide (EGVVYVEVR) (human)
T3 peptide: EGVVYVEVR

[4] = biological target: T4, CD56 122-130 signature peptide (NAPTPQEFR)
T4 construct: Endogenous tryptic peptide of CD56 (NCAM) from digested dried blood spots of patients and normal controls
T4 peptide: NAPTPQEFR

[5] = biological target: T5, CD42 128-137 signature peptide (LTSLPLGALR)
T5 construct: Endogenous tryptic peptide of CD42 (glycoprotein Ib) from digested dried blood spots of patients and normal controls
T5 peptide: LTSLPLGALR

[6] = biological target: T6, ATM 1561-1572 signature peptide (LLDPFPDHVVFK)
T6 construct: Endogenous tryptic peptide of ATM from digested dried blood spots of normal controls
T6 peptide: LLDPFPDHVVFK

[7] = biological target: T7, CD42 154-165 signature peptide (TLPPGLLTPTPK)
T7 construct: Endogenous tryptic peptide of CD42 (glycoprotein Ib) from digested dried blood spots of patients and normal controls
T7 peptide: TLPPGLLTPTPK

[8] = biological target: T8, SH2D1A 19-32 signature peptide (LLLATGLDGSYLLR)
T8 construct: Tryptic peptide of SH2D1A (SAP); also called SAP
T8 peptide: LLLATGLDGSYLLR

B1: anti-CYBB 509 monoclonal antibody (antibody, V domains shown)
VH: QSLEESGGGLVKPGASLTLTCTASGFSFSRSYWICWVRQAPGKGLEWLGCIYAGSSGSTYYASWAKGRFTISKTSSTTVTLQMTSLTAADTATYFCARGNNNIIILDLWGPGILVTVSS
VL: AVLTQTPSPVSAAVGGTVTISCQASQSVYNNNALSWYQQKPGQPPKLLIYDASDLAPGVPSRFSGSGSGTQFTLTISDVQCDDAATYYCLGGYSVSSDNAFGGGTEVVVNG
notes: Full heavy and light chains without leader; also called clone EB0611C-1E12-H2 / EB0611C-1E12-K2
binding result [1]: binds

B2: anti-DOCK8 1272 monoclonal antibody (antibody, V domains shown)
VH: EVQLQQSGTVLARPGASVKMSCKASGYTFTSYWMHWVKQRPGQGLEWIGAIFPGNSNTRYNQKFKGKAKLTAVTSASTAYMELSSLTNEDSAVYYCADDNAFDYWGQGTTLTVSS
VL: QIVLTQSPAIMSASPGEKVTMTCSASSSVSSRYLHWYQQKSGASPKLWIYGTSNLSSGVPDRFSGSGSGTSYSLTISSVETEDAATYYCQQYHSDPFTFGTGTKLEIK
notes: Hybridoma antibody; also called Hybridoma SJSH5-1C2-2E
binding result [2]: binds

B3: anti-ADA 93 monoclonal antibody (antibody, V domains shown)
VH: QEQLEESGGDLVKPGSSLTLTCTASGFSFTNSDWECWVRQAPGKGLEWIACIYGDSRSGYYASWAKGRFTISKTSSTTVTLQMTTLTAADTATYFCARNLGSLWGPGTLVTVSS
VL: QVLTQTPSSVSAAVGGTVTINCQSSQNVVFNNRLAWFQQKPGQPPKLLIYQASTLASGVPPRFKGSGSGTQFTLTISDLECDDAATYYCLGSYDCSSTDCNTFGGGTEVVVKG
notes: Full heavy and light chains without leader; also called clone EB0608A-3C12-H2 / EB0608A-3C12-K2
binding result [3]: binds

B4: anti-CD56 122 monoclonal antibody (antibody, V domains shown)
VH: QSLEESGGDLVKPGASLTLTCKASGLDFSSNYYMCWVRQAPGKGLEWIACIYSSSLNTWYASWAKGRFTISKSTSLHTVTLQMTSLTAADTATYFCTRGGGVYVGADYGFYFYLWGPGTLVTVSS
VL: DIVMTQTPSSVEAPVGGTVTIKCQASQSIDSWCAWYQQKPGQPPKLLIYKASTLESGVPSRFKGSGSGTEFTLTISDLECADAATYFCQSYYPTTGSDNAFGGGTEVVVKG
notes: Full heavy and light chains without leader; also called clone EB0608C-3H4-H2 / EB0608C-3H4-K2
binding result [4]: binds

B5: anti-CD42 128 monoclonal antibody (antibody, V domains shown)
VH: QAYLQQSGAVLVRPGASVKMSCKASGYTFSSYNIHWVKQTPRQGLEWIGGIYPGNGDTSYNKKFKDKATLTVDKSSNTAYMHLSSLTSEDSAVFFCASDGTRYWGQGTTLTVSS
VL: EVVMTQTPLTLSVTIGQAVSISCTSSQSLLASDGKTYLNWLLQRPGQSPKRLIYLVSKLDSGVPDRFTGSGSGTDFTLKISRVEADDLGVYCCWQGAHSPLTFGAGTRLELK
notes: Hybridoma antibody; also called Hybridoma SJSH4 3B8-1b
binding result [5]: binds

B6: anti-ATM 1561 monoclonal antibody (antibody, V domains shown)
VH: QEQLVESGGGLVQPGGSLTLTCKASGFDFSSGGMCWVRQAPGKGLEWIGCIVNGDGSTYFATWAKGRFTITRTSSTTVTLQMTSLTAADTATYFCWRYWALWGPGTLVTVSS
VL: IVMTQTPSSKSVPVGGTVTINCQASESLYNNNRLAWFQQKPGQPPKLLIYSASTLASGVPDRFSGSGSGTQFTLTISDVVCDDAATYYCVGGRSRVTDGIAFGGGTEAVVKG
notes: Full heavy and light chains without leader; also called clone EB0608D-4A10-H4 / EB0608D-4A10-K1
binding result [6]: binds

B7: anti-CD42 154 monoclonal antibody (antibody, V domains shown)
VH: EVQLQQSGPELVKPGASVKMSCKASGYTFTGYNMHWVKQSHGKSLEWIGDINPKTGENSYNQKFKGKATLTISKSSSTAYMELRSLTSEDSAVYYCVRWGVYYLDHWGQGTTLTVSS
VL: DIVMTQAAFSNPVTLGTSASISCRSTKSLLYSDGITYLYWYLQRPGQSPQLLIYRMSDLASGVPDRFSGSGSGTDFTLRISRVEAEDVGVYYCAQMVEFPPTFGGGTKLEIK
notes: Hybridoma antibody; also called Hybridoma SJSH4-1H11c
binding result [7]: binds

B8: anti-SH2D1A (SAP) 19 monoclonal antibody (antibody, V domains shown)
VH: QSLEESGGRLVTPGGTLTLTCTVSGFSLSSYDMSWVRQAPGKGLEWIGFGNTGGSTYYASWAKGRFTISRTSTTVDLRMTSLTAADTATYFCTRGAPGWITTNMWGPGTLVTVSL
VL: QVLTQTPSPVSAAVGGTVTISCQSSQSVYRNKCLAWYQQKPGQPPKLLIYKASTLASGVPSRFSGSGSGTQFTFTISDLECDDSATYYCVGYYNTNTNTTTFGGGTEVVVKG
notes: Full heavy and light chains without leader; also called Anti-SH2D1A 19; clone EB0612B-2F4-H1 / EB0612B-2F4-K1
binding result [8]: binds

— patent US20210285965A1 (SEATTLE CHILDREN S HOSPITAL D B A SEATTLE CHILDREN S …, published 2021)
